Measured values: PMC9340783 (2022)
Substitutions are numbered along the chain they refer to.

B1: hab019e2 (antibody, V domains shown)
VH: QVQLVESGGGVVQPGRSLRLSCAASGFTFSSYGMHWVRQAPGKGLEWVAVIWYAGSRKFYADSVEGRFTISRDNSKNTLYLQMNSLRAEDTAVYYCARGGSLEGGFFYYGMDVWGQGTTVTVSS
VL: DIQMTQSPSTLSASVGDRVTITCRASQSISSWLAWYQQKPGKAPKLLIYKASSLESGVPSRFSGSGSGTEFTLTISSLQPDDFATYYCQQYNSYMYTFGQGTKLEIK
B2: hab019 (antibody, V domains shown)
VH: B1 VH with N84S, L86V, A88P, E103D
VL: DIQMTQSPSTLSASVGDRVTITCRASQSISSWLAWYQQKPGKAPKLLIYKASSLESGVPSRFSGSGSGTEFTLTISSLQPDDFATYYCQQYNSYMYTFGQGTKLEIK
B3: hab076 (antibody, V domains shown)
VH: QVQLVESGGGVVQPGRSLRLSCAASGFTFSSYGMHWVRQAPGKGLEWVAVIWYETSNKYYADSVKGRFTISRDNSKNTLYLQMNSLRAEDTAVYYCARYGASSGWYWYFDLWGRGTLVTVSS
VL: DIQLTQSPSFLSASVGDRVTITCRASQGISSYLAWYQQKPGKAPKLLIYAASTLQSGVPSRFSGSGSGTEFTLTISSLQPEDFATYCCQQLNSYPFTFGQGTKLEIK
B4: hab070 (antibody, V domains shown)
VH: B3 VH with Y59F, A61V
VL: B3 VL with Y32F
B5: hab064 (antibody, V domains shown)
VH: B3 VH with S85N, A101G, S102N
VL: B3 VL with Y32F, K42T
B6: hab070e1 (antibody, V domains shown)
VH: B3 VH with Y59F, A61V
VL: B3 VL with Y32F, C87Y

biological target: hGITR ECD hFc (human, UniProt Q9Y5U5 26-161, Thr45Ala); assay: SPR
Sequence (Q9Y5U5 26-161 T45A): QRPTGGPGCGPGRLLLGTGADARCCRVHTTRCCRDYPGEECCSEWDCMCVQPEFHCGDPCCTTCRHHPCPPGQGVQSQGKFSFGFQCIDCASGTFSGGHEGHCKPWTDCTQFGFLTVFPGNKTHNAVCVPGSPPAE

| koff [s⁻¹] | Binder |
| --- | --- |
| 0.00023 | B1 |
| 0.000205 | B2 |
| 0.000684 | B3 |
| 0.000185 | B4 |
| 0.000315 | B5 |
| 0.000381 | B6 |
